Data reported in patent US8017326B2, “Methods of modulating cell death based on the Bit-1/AES regulatory pathway” (Sanford-Burnham Medical Research Institute, priority 2002, dated 2011).

Legend:
Bcl-2 promoter = experiment: Bcl-2-promoter-luciferase reporter assay in HEK 293 cells; type: cell-based, human; settings: luciferase after 24 hours
Procedure: (§1) Bit1 activity was analyzed in the human embryonic kidney cell line, HEK 293. […] Furthermore, HEK 293 cells were transfected with a Bcl-2-promoter-luciferase reporter construct together with increasing amounts of Bit1 expression construct; Bcl-2 transcription was measured by quantifying luciferase […] after 24 hours in culture. In agreement with the CHO cell results, transcription from the Bcl-2 promoter was suppressed in the Bit1-transfected HEK 293 cells (see FIG. 1B). […] In particular, the percentages of annexin V-positive cells (lower right quadrants) are about 1.4% in the control and about 4.7% in the Bit1-transfected cells.

HEK 293 cells = experiment: Annexin V-FITC/propidium iodide staining of Bit1-transfected cells; type: cell-based, human
Procedure: as §1
Analysis of cell viability and apoptosis was performed as follows. Cell viability was measured by trypan blue exclusion analysis. Apoptosis was confirmed by DNA fragmentation (Oncogene; La Jolla, Calif.) thirty-six hours after transfection. Annexin-V staining (BD Biosciences Clontech; Palo Alto, Calif.) was performed according to the manufacturer's protocol.

HOP92 cells = experiment: Percentage of GFP-positive detached cells after transfection; type: cell-based; settings: 72 hours after transfection; cells express only negligible amounts of AES
Procedure: To determine if Bit1 and AES are both required for apoptosis induction, HEK 293T, HOP92, and CHO cells were transfected with a GFP (vector), GFP-Bit1, or GFP-AES fusion protein constructs, as indicated in FIG. 3E. The cells were examined 48 hours (HEK 293T and CHO) or 72 hours (HOP92) after transfection, and the percentage of GFP-positive detached cells was measured.
Because the HEK 293T cells lack detectable Bit1 activity, it seemed possible that AES required endogenous Bit1 for the pro-apoptotic activity. An NIH data bank identified HOP92 as a cell line that expresses only negligible amounts of AES. […] CHO cells (FIG. 3E) and HeLa cells, which express both Bit1 and AES, underwent apoptosis upon transfection with either protein.

B1: Bit1: human Bit1 polypeptide of 179 residues (SEQ ID NO:2), pro-apoptotic, expressed in cells by transfection (protein, listed as Homo sapiens)
chain: MPSKSLVMEYLAHPSTLGLAVGVACGMCLGWSLRVCFGMLPKSKTSKTHTDTESEASILGDSGEYKMILVVRNDLKMGKGKVAAQCSHAAVSAYKQIQRRNPEMLKQWEYCGQPKVVVKAPDEETLIALLAHAKMLGLTVSLIQDAGRTQIAPGSQTVLGIGPGPADLIDKVTGHLKLY
transcription from the Bcl-2 promoter (Bcl-2 promoter): suppressed
Late stage apoptosis, both annexin V and propidium iodide uptake (upper right quadrants) (HEK 293 cells; Bit1-transfected HEK 293 cells versus control): 18%
percentages of annexin V-positive cells (lower right quadrants) (HEK 293 cells; Bit1-transfected HEK 293 cells, control about 1.4%): about 4.7%
apoptosis induction in HOP92 cells (HOP92 cells): resistant
